Measured values published in PMC4410316.
Like-named read-outs stand apart in the source and are kept apart here.

Tests used:
human thrombin (HT) [1] = biological target: T1, human thrombin (HT) (Homo sapiens (human), UniProt P00734;P00734 328-363;364-622); experiment: nanopore single-molecule titration
human thrombin (HT) [2] = biological target: T1, human thrombin (HT); experiment: nanopore single-molecule titration; remark: listed apart in the source
human thrombin (HT) [3] = biological target: T1, human thrombin (HT); experiment: nanopore single-molecule
human thrombin (HT) [4] = biological target: T1, human thrombin (HT); experiment: nanopore single-molecule titration; remark: listed apart in the source
human thrombin (HT) [5] = biological target: T1, human thrombin (HT); experiment: nanopore single-molecule titration; remark: listed apart in the source

GGTTGGTGTGGATGG (structured_DNA) [TBA-T12A]
Kd (human thrombin (HT) [1]): 7 ± 1 nM

GGATGGTGTGGTTGG (structured_DNA) [TBA-T3A]
Kd (human thrombin (HT) [2]): 6 ± 1 nM

CACCATCACCACCATCAT (ssDNA) [Random DNA]
binding result (human thrombin (HT) [3]): no binding

GGTTGGTGTGGTTGG (structured_DNA) [TBA]
Kd (human thrombin (HT) [4]): 13 ± 3 nM
Kd (human thrombin (HT) [5]): 8 ± 1 nM
